These results are taken from patent US20030059812.

The target of the series is 3H-histones isolated from murine erythroleukemia cells.

B1: HDAC9a-FLAG (C-terminal FLAG-tagged HDAC9a, expressed from pFLAG-CMV-5b-HDAC9a, plasmid VR2) (protein)
chain: MHSMISSVDVKSEVPVGLEPISPLDLRTDLRMMMPVVDPVVREKQLQQELLLIQQQQQIQKQLLIAEFQKQHENLTRQHQAQLQEHIKELLAIKQQQELLEKEQKLEQQRQEQEVERHRREQQLPPLRGKDRGRERAVASTEVKQKLQEFLLSKSATKDTPTNGKNHSVSRHPKLWYTAAHHTSLDQSSPPLSGTSPSYKYTLPGAQDAKDDFPLRKTASEPNLKVRSRLKQKVAERRSSPLLRRKDGNVVTSFKKRMFEVTESSVSSSSPGSGPSSPNNGPTGSVTENETSVLPPTPHAEQMVSQQRILIHEDSMNLLSLYTSPSLPNITLGLPAVPSQLNASNSLKEKQKCETQTLRQGVPLPGQYGGSIPASSSHPHVTLEGKPPNSSHQALLQHLLLKEQMRQQKLLVAGGVPLHPQSPLATKERISPGIRGTHKLPRHRPLNRTQSAPLPQSTLAQLVIQQQHQQFLEKQKQYQQQIHMNKLLSKSIEQLKQPGSHLEEAEEELQGDQAMQEDRAPSSGNSTRSDSSACVDDTLGQVGAVKVKEEPVDSDEDAQIQEMESGEQAAFMQQPFLEPTHTRALSVRQAPLAAVGMDGLEKHRLVSRTHSSPAASVLPHPAMDRPLQPGSATGIAYDPLMLKHQCVCGNSTTHPEHAGRIQSIWSRLQETGLLNKCERIQGRKASLEEIQLVHSEHHSLLYGTNPLDGQKLDPRILLGDDSQKFFSSLPCGGLGVDSDTIWNELHSSGAARMAVGCVIELASKVASGELKNGFAVVRPPGHHAEESTAMGFCFFNSVAITAKYLRDQLNISKILIVDLDVHHGNGTQQAFYADPSILYISLHRYDEGNFFPGSGAPNEVRFISLEPHFYLYLSGNCIA
Consider B1, for which the “HDAC enzymatic activity (3H-acetic acid released from 3H-histones)” value was “HDAC9a-FLAG deacetylated 3H-acetyl-histones”.
